Assay results: patent US20110135573A1, “METALLOPROTEINASE 9 AND METALLOPROTEINASE 2 BINDING PROTEINS” (DYAX CORP., priority 2009, published 2011)

Key:
h-MMP-9/h-TIMP-1 complex = h-MMP-9/h-TIMP-1 complex (Homo sapiens, UniProt P14780); assay: Biacore 3000 binding to antibody-coated CM5 chip; settings: 25° C.
Method: The non competitive inhibition model implies that the ternary complex enzyme-substrate-inhibitor can form. It is however possible that this complex cannot form with bigger substrates, in which case the antibody would behave as a competitive inhibitor. In order to address this issue, the ability of M0237-D02 antibody to bind to the h-MMP-9 when the enzyme is complexed to its natural inhibitor h-TIMP-1 was determined. The reasoning is that if the antibody cannot bind to the h-MMP-9/h-TIMP-1 complex, it would probably behave as a competitive inhibitor of this enzyme in the presence of bigger substrates.
Experiments were performed at 25° C. with the help of a Biacore 3000 instrument. The MMP-9 binding protein (M0166F10) and the M0237-D02 antibody were coated to a CM5 chip either via standard amine coupling or using an anti-Fc antibody surface. Then either the active, human MMP-9 catalytic domain (BIOMOL, SE-244), the human pro-MMP-9 (R&D, 911-MP), the human TIMP-1 (R&D, 970-TM) or a h-MMP-9/h-TIMP-1 complex were flowed over the antibody surfaces, and binding was recorded.

MMP-9 = MMP-9 (Homo sapiens, UniProt P14780); assay: Enzyme inhibition assay (single point inhibition, IC50/Ki,app), substrate M-2350; assay type: biochemical; design: Human MMP-9 catalytic domain (BIOMOL, SE-244); purchased BIOMOL SE-244
Method: (§1) 343 unique sFabs from the anti-MMP-9/-2 M237-D02 affinity maturation campaign were discovered by phage display, produced in small scale (6 mL cultures in deep 24-well plates) and screened to select inhibitors with sub-nanomolar potency against the human enzymes and at least single-digit nanomolar potency toward the mouse orthologues. […] Isolates which appeared potent against both human and mouse MMP-2 were then subjected to IC50 analysis against hMMP-9. Sub-nanomolar inhibitors of hMMP-9 were further tested by IC50 analysis against mMMP-9 and h/m MMP-2, if sufficient small-scale sFab material was available. Thirteen potential h/m MMP-9/-2 sFab inhibitors were then produced in medium scale (250 mL cultures in flasks) and retested for h/m MMP-9 and h/m MMP-2 inhibition. Five potential lead candidates were reformatted as IgGs and retested in enzyme inhibition assays.
Human MMP-9 (Biomol #SE-244), mouse MMP-9 (R&D Systems #909-MM-010), human MMP-2 (Biomol #SE-237) and mouse MMP-2 (R&D Systems #924-MP-010) were tested at final concentrations of 1 nM, 0.25-0.4 nM, 2.5 nM and 0.2 nM, respectively. Target enzymes were incubated with inhibitor for two hours at 30° C. in reaction buffer (50 mM Tris-HCl pH 7.5, 150 mM NaCl, 5 mM CaCl2, 0.05% Brij-35) in a total volume of 90 μL using a white 96 well plate (Costar). Reactions contained 5 μL of small-scale sFab stock solution (average concentration of 500 nM) for single point inhibition analysis or a concentration series of sFab/IgG for IC50 Ki,app determinations. […] Reactions were initiated by the addition of 10 μL of a 10× concentrated stock of substrate, Mca-Lys-Pro-Leu-Gly-Leu-Dap(Dnp)-Ala-Arg-NH2, (Bachem M-2350), at final concentration of 10 μM and monitored at 30° C. in a Molecular Devices' Gemini fluorescence plate reader. […] Kinetic data were acquired by the increase in fluorescence, and initial rates for each condition were plotted against the total inhibitor concentration. […]

mouse MMP-2 = biological target: T1, mouse MMP-2 (Mus musculus, UniProt P33434); assay: as above; assay type: biochemical
T1 construct: purchased R&D Systems 924-MP-010
Method: as §1
(§2) Human MMP-9 (Biomol #SE-244), mouse MMP-9 (R&D Systems #909-MM-010), human MMP-2 (Biomol #SE-237) and mouse MMP-2 (R&D Systems #924-MP-010) were tested at final concentrations of 1 nM, 0.25-0.4 nM, 2.5 nM and 0.2 nM, respectively. Target enzymes were incubated with inhibitor for two hours at 30° C. in reaction buffer (50 mM Tris-HCl pH 7.5, 150 mM NaCl, 5 mM CaCl2, 0.05% Brij-35) in a total volume of 90 μL using a white 96 well plate (Costar). Reactions contained 5 μL of small-scale sFab stock solution (average concentration of 500 nM) for single point inhibition analysis or a concentration series of sFab/IgG for IC50 Ki,app determinations. Commercially available anti-MMP-9 antibodies (Millipore mAb 13415 and R&D Systems polyclonal IgG #AB911) were tested by IC50 analyses using 100 nM and 500 nM as the highest inhibitor concentrations, respectively. An anti-MMP-2 antibody (R&D Systems polyclonal IgG #AF902) was similarly tested with 200 nM as the highest inhibitor concentration. Reactions were initiated by the addition of 10 μL of a 10× concentrated stock of substrate, Mca-Lys-Pro-Leu-Gly-Leu-Dap(Dnp)-Ala-Arg-NH2, (Bachem M-2350), at final concentration of 10 μM and monitored at 30° C. in a Molecular Devices' Gemini fluorescence plate reader. The excitation and emission wavelengths were set at 328 nm and 393 nm, respectively. Kinetic data were acquired by the increase in fluorescence, and initial rates for each condition were plotted against the total inhibitor concentration. Reactions were performed in duplicates and all data replicates were plotted in a single graph and fit to the following equation^1:
(§3) Where A=initial rate observed at each inhibitor concentration; Ao=initial rate observed in the absence of inhibitor; Ainh=initial rate observed for the enzyme inhibitor complex; Inh=concentration of inhibitor; E=total enzyme concentration (treated as a floated parameter); and Ki,app=apparent equilibrium inhibition constant.

human MMP-2 = biological target: T2, human MMP-2 (Homo sapiens, UniProt P08253); assay: as above; assay type: biochemical
T2 construct: purchased Biomol SE-237
Method: as §1, §2, §3

Mouse MMP-9 = biological target: T3, Mouse MMP-9 (Mus musculus, UniProt P41245); assay: as above; assay type: biochemical
T3 construct: purchased R&D Systems 909-MM (909-MM-010)
Method: as §1, §2, §3

Sequence of h-MMP-9/h-TIMP-1 complex (P14780 107-444 limits assumed): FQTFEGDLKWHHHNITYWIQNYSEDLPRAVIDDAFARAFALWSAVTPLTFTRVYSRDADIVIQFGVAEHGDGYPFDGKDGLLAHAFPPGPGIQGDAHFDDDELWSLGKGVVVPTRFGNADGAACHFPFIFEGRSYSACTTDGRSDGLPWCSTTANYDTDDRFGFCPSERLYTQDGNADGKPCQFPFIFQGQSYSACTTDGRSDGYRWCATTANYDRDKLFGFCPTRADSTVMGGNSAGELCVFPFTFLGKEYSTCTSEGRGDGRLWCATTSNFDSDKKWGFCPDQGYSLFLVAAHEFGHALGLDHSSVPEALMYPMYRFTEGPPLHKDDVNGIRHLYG
Sequence of h-MMP-9/h-TIMP-1 complex (P01033 24-207 partner): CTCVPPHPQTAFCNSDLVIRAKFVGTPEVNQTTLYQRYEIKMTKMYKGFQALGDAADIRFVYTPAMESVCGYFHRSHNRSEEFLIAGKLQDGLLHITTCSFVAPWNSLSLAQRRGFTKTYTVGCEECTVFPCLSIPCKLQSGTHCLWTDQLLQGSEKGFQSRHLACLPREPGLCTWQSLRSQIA
T1 sequence (P33434 110-662): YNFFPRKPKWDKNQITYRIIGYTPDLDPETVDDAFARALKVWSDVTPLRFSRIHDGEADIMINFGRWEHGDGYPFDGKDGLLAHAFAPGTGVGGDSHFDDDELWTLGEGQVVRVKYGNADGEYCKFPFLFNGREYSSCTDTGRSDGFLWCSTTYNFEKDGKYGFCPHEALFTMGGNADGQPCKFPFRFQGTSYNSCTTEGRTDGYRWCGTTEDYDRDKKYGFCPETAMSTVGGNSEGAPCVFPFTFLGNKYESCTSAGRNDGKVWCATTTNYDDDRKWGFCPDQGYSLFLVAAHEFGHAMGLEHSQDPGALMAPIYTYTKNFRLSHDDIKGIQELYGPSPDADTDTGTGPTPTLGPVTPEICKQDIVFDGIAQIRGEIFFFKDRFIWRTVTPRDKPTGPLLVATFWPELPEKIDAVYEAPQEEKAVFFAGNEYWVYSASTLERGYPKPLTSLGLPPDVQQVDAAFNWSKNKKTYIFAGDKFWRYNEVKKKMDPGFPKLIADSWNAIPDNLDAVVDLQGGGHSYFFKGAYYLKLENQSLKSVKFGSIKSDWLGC
T2 sequence (P08253 110-446 limits assumed): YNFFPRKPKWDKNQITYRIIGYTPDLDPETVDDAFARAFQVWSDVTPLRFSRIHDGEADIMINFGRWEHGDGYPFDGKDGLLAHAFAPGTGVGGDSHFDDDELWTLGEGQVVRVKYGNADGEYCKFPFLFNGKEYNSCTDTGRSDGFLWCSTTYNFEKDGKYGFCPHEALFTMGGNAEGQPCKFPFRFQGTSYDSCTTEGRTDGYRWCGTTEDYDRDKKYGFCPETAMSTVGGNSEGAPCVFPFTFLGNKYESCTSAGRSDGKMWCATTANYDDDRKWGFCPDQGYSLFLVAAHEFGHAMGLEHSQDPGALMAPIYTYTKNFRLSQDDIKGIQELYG
T3 sequence (P41245 108-730): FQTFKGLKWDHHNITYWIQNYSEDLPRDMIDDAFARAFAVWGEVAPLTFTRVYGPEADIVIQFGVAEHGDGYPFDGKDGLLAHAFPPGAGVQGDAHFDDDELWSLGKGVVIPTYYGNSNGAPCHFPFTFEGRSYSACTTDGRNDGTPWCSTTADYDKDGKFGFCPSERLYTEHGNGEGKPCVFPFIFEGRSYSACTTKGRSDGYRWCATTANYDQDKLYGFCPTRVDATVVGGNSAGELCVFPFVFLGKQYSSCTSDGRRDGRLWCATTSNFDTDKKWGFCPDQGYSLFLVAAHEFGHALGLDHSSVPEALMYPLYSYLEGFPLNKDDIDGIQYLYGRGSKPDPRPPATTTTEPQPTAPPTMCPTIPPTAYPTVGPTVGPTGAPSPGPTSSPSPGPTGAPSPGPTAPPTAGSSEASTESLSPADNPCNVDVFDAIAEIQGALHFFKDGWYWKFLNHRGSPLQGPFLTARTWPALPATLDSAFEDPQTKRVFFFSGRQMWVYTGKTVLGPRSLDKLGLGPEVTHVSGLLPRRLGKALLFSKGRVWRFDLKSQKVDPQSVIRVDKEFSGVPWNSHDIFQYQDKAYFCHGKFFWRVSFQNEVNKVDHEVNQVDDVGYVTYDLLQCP
Sequence of MMP-9 (P14780 107-444 limits assumed): as the sequence (P14780 107-444 limits assumed) above

B1: M0237-D02: MMP-9/-2 dual reactive antibody inhibitor (parental); sFab and hIgG1 (antibody, V domains shown)
VH: EVQLLESGGGLVQPGGSLRLSCAASGFTFSQYPMWWVRQAPGKGLEWVSYIVPSGGRTYYADSVKGRFTISRDNSKNTLYLQMNSLRAEDTAVYYCAKDRAYGDYVGWNGFDYWGQGTLVTVSS
VL: DIQMTQSPATLSLSPGERATLSCRASQSISSFLAWYQQKPGQAPRLLIYDASYRATGIPARFSGSGSGTDFTLTISSLEPEDYAVYYCQQRGNWPITFGQGTRLEIK
binding of huTIMP-1/cat-huMMP-9 (h-MMP-9/h-TIMP-1 complex; Direct capture): No
binding of huTIMP-1/cat-huMMP-9 (h-MMP-9/h-TIMP-1 complex; Fc capture): no binding was observed
binding of huTIMP-1/cat-huMMP-9 (h-MMP-9/h-TIMP-1 complex; Fc capture, listed as 539A-M0237D02): No
affinity for hMMP-9 (in words) (MMP-9): high affinity
affinity for mMMP-2 (in words) (mouse MMP-2): low affinity
Ki (mouse MMP-2; IgG, Table 12): 0.076 µM
affinity for hMMP-2 (in words) (human MMP-2): high affinity
affinity for mMMP-9 (in words) (Mouse MMP-9): high affinity
